Reference: patent US6110457

Target: T1, bovine fetuin (type IV; Sigma Chemical Company) (bovine) (UniProt P12763)
T1 sequence: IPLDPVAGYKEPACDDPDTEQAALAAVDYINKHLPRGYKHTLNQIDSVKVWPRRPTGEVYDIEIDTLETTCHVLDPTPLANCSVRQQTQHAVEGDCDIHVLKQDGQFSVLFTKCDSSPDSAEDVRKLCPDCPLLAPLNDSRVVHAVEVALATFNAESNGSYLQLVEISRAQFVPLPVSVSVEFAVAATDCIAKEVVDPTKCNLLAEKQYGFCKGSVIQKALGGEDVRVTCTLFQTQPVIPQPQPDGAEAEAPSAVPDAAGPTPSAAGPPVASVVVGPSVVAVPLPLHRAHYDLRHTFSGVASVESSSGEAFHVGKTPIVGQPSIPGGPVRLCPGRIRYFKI

B1: hemagglutinin-neuraminidase protein, HN, of wild-type HPIV-3 (JS) (enzyme)
chain: MEYWKHTNHGKDAGNELETSMATHGNKLTNKIIYILWTIILVLLSIVFIIVLINSIKSEKAHESLLQDINNEFMEITEKIQMASDNTNDLIQSGVNTRLLTIQSHVQNYIPISLTQQMSDLRKFISEITIRNDNQEVLPQRITHDVGIKPLNPDDFWRCTSGLPSLMKTPKIRLMPGPGLLAMPTTVDGCVRTPSLVINDLIYAYTSNLITRGCQDIGKSYQVLQIGIITVNSDLVPDLNPRISHTFNINDNRKSCSLALLNTDVYQLCSTPKVDERSDYASSGIEDIVLDIVNYDGSISTTRFKNNNISFDQPYAALYPSVGPGIYYKGKIIFLGYGGLEHPINENVICNTTGCPGKTQRDCNQASHSPWFSDRRMVNSIIVVDKGLNSIPKLKVWTISMRQNYWGSEGRLLLLGNKIYIYTRSTSWHSKLQLGIIDITDYSDIRIKWTWHNVLSRPGNNECPWGHSCPDGCITGVYTDAYPLNPTGSIVSSVILDSQKSRVNPVITYSTATERVNELAILNRTLSAGYTTTSCITHYNKGYCFHIVEINHKSLNTFQPMLFKTEIPKSCS
B1 was tested. Which Neuraminidase activity with Fetuin (optical density values at 549nm) (optical density at 549nm) did it give?
The Neuraminidase activity with Fetuin (optical density values at 549nm) (optical density at 549nm) was 1.11.
